Laboratory results published in US20090246205A1 (Eli Lilly, published 2009).

Tests used:
Recombinant RON-Fc [1] = target: T1, Recombinant RON-Fc (human, UniProt Q04912 25-571); assay: ELISA, blocking of the MSP/RON interaction
T1 construct: also called recombinant human RON receptor; MSP-R; not shown: Fc part of the bought RON-Fc (Sigma-Aldrich)
T1 sequence (looked up): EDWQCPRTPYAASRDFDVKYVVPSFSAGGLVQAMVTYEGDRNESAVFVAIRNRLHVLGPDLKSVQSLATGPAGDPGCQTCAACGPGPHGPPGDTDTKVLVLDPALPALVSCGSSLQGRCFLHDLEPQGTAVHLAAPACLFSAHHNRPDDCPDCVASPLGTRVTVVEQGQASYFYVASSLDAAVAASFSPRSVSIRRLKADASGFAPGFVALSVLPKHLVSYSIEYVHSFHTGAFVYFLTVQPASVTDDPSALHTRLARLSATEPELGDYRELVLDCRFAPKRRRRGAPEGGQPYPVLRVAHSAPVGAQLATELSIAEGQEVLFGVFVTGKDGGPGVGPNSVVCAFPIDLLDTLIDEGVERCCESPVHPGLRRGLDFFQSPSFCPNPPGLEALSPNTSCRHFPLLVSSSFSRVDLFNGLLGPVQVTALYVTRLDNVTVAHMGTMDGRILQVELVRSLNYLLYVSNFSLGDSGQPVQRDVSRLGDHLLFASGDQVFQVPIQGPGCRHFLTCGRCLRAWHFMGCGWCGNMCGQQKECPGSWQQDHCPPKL
Procedure: ELISA to Detect Fab Antibodies That Block the MSP/RON Interaction. Maxi-sorp 96-well microtiter plates (Nunc) were coated with (1 μg/ml×100 μl) MSP (R&D Systems) at RT for 1.5 hours. After washing the wells, they were blocked with 3% PBS/milk. Anti-RON phage antibodies that were converted to Fab or full IgG were pre-incubated with RON-Fc (25 ng/well) at RT for 1 hour. The Fab/RON-Fc or IgG/RON-Fc mixtures were then added to the MSP-coated wells and allowed to incubate for 1.5 h at RT.
ELISA for Determination of IC50 and ED50 The ability of the anti-RON antibodies, IMC-41A10 and IMC-41B12, to bind to recombinant human RON receptor and to block the MSP/RON interaction were measured using ELISA.

Recombinant RON-Fc [2] = target: T1, Recombinant RON-Fc; assay: ELISA, recombinant human RON receptor immobilized on the plate
Recombinant RON-Fc [3] = target: T1, Recombinant RON-Fc; assay: BIAcore 3000 SPR, RON-Fc immobilized, Fab or antibody injected
Procedure: BIAcore-Analysis. The binding kinetics of soluble Fab and antibody proteins to RON was determined by using a BIACORE 3000 (BIAcore, Piscataway, N.J.). Recombinant RON-Fc was immobilized onto a sensor chip, and Fab or antibody was injected at various concentrations. Sensorgrams were obtained and evaluated using BIA Evaluation 2.0 software to determine rate constants. The affinity constant, KD, was calculated from the ratio of the rate constants Koff/Kₒₙ. The “Kon, M⁻¹.S⁻¹” and “Koff, S⁻¹” rates of the interaction were used to determine the affinity (Kd, M) of the antibody/receptor interaction. […] For IMC-41B12, they were: 1e-10, 1.7e6 and 1.7e-4.

| Binder | IC50 (Recombinant RON-Fc [1]) [nM] | EC50 (Recombinant RON-Fc [2]) [nM] | Kd (Recombinant RON-Fc [3]) [nM] | koff (Recombinant RON-Fc [3]) [s⁻¹] | kon (Recombinant RON-Fc [3]) [M⁻¹ s⁻¹] |
| --- | --- | --- | --- | --- | --- |
| IMC-41B12 (antibody, V domains shown, also called IMC-14B12) VH: QVQLQESGPGLVKPSEILSLTCTVSGGSISSHYWSWVRQPPGKGLEWIGYIYYSGSTNYNPSLKSRVTISVDTSKNQFSLNLSSVTAADTAVYYCARIPNYYDRSGYYPGYWYFDLWGRGTLVTVSS VL: QAVLTQPSSLSAPPGASASLTCTLRSGFNVDSYRISWYQQKPGSPPQYLLRYKSDSDKQQGSGVPSRFSGSKDASANAGILLISGLQSEDEADYYCMIWHSSAWVFGGGTKLTVLR | 2 | 0.1 | 0.1 | 0.00017 | 1.7e+06 |
| IMC-41A10 (antibody, V domains shown, also called anti-RON IMC-41A10 antibody; IMC-14A10) VH: EVQLVQSGGGLVKPGGSLRLSCAASGFTFSSYAMHWVRQAPGKGLEWVAVISYDGSNKYYADSVKGRFTISRDNSKNTLYLQMNSLRAEDTAVYYCARFSGWPNNYYYYGMDVWGQGTTVTVSS VL: DVVMTQSPLSLPVTPGEPASISCRSSQSLLHSNGFNYVDWYLQKPGQSPHLLIYFGSYRASGVPDRFSGSGSGTDFTLKISRVEAEDVGVYYCMQALQTPPWTFGQGTKVEIR | 2 | 0.15 | 1.5 | 0.00013 | 84000 |
